# Results: PMC10504179
# B1: single nicked 40 nt dsDNA (Template T + N1 + N2) (dsDNA)
# DNA 1: ATTGAGTGGACAAAGTATCGTAGGGTAGTATTGGTGGATA
# DNA 2: TATCCACCAATACTACCCTA
# DNA 3: CGATACTTTGTCCACTCAAT
# modifications: none; 5' end at nick not phosphorylated
# B2: 1 nt gapped 40 nt dsDNA (Template T + G1 + G2) (dsDNA)
# DNA 1: B1 DNA 1
# DNA 2: TATCCACCAATACTACCCTAC
# DNA 3: ATACTTTGTCCACT
# modifications: none; 5' end at gap not phosphorylated
# B3: single nick with 10 nt 5'-flap 40 nt dsDNA (Template T + F1 + N2) (dsDNA)
# DNA 1: B1 DNA 1
# DNA 2: TATCCACCAATACTACCCTA
# DNA 3: TAACGCTGGGCGATACTTTGTCCACTCAAT
# modifications: none; 5' end of flap not phosphorylated
# Key:
# DrLigA = DrLigA (Deinococcus radiodurans, UniProt Q9RSQ5 1-700); test: EMSA; 5 mM MgSO4, 5 mM MnSO4, 300 µM NAD+; 100 nM DNA, tight at 10-fold protein; 20 mM Bis-Tris pH 6.0, 5 mM MgSO4, 5 mM MnSO4, 300 µM NAD+, 25% glycerol; 100 nM DNA; 15 min at room temperature; 6% PAGE, 1x TBE, 4 °C
# DrLigAΔBRCT = DrLigAΔBRCT (Deinococcus radiodurans, UniProt Q9RSQ5 1-600); test: EMSA; 5 mM MgSO4, 5 mM MnSO4, 300 µM NAD+; no complex up to 1:10 DNA:protein (100 nM DNA); 20 mM Bis-Tris pH 6.0, 5 mM MgSO4, 5 mM MnSO4, 300 µM NAD+, 25% glycerol; 100 nM DNA; 15 min at room temperature; 6% PAGE, 1x TBE, 4 °C
binder,measurement,setting,value
B1,binding result,DrLigA,binds
same,binding result,DrLigAΔBRCT,no binding
B2,binding result,DrLigA,binds
same,binding result,DrLigAΔBRCT,no binding
B3,binding result,DrLigAΔBRCT,no binding
